The experiment concerns the target agrl1_mouse Adgrl1 (UniProt Q80TR1).
Sequence of UniProt Q80TR1 (Q80TR1 whole entry): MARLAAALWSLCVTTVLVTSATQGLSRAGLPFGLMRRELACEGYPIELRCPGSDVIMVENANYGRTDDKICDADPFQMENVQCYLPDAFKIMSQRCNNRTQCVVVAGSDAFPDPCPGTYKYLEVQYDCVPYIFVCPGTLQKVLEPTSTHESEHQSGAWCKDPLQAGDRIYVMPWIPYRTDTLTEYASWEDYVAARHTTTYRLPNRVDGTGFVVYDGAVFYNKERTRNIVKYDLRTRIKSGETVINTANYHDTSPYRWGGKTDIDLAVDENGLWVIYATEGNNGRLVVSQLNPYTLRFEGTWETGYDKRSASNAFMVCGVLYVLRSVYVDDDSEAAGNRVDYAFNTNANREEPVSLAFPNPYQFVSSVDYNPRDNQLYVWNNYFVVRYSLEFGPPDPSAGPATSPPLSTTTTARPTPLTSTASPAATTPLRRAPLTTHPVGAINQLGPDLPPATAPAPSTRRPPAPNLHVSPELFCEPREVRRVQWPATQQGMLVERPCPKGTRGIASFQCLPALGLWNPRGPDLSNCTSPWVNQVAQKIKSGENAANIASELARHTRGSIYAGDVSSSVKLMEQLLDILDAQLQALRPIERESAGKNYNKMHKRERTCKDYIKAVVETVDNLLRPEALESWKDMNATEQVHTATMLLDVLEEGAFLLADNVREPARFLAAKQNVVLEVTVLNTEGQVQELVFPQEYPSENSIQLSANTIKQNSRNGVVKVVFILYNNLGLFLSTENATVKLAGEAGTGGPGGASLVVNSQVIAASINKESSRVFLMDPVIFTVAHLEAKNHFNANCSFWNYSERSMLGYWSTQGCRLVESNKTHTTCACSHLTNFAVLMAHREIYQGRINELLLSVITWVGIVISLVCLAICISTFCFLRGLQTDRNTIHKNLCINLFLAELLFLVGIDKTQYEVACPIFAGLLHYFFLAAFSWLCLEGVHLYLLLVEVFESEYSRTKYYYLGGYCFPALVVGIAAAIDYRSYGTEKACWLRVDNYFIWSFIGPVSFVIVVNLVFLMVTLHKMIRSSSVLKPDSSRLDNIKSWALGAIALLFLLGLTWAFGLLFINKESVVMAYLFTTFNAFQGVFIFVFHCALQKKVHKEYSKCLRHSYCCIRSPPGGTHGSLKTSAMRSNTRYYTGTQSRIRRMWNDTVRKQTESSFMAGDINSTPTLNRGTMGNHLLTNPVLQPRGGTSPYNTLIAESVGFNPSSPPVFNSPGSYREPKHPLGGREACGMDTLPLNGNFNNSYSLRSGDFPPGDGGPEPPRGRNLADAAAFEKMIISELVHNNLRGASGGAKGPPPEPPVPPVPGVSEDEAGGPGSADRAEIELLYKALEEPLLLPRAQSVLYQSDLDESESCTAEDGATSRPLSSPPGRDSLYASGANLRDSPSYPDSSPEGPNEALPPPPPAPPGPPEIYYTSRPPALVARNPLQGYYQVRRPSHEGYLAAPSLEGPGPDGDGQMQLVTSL

For Teneurin-1 (Mus musculus), Q9WTS4 R37K, the “effect of a mutation on the interaction” value was “with no effect”.
